Measurements reported in patent EP3815699A1, “NEW MEANS AND METHODS FOR THERAPY AND DIAGNOSIS OF […]” (Technische Universität München, priority 2019, dated 2021).

Target: His/HA-SUMO-2 (stably expressed in HepaRG cells) (UniProt P61956)
Test: Ni-NTA purification of covalent His/HA-SUMO-2 conjugates from infected HepaRG cells, anti-E2A immunoblot, densitometry normalised to E2A levels

## E2A K94/132/202R, untagged (pCMX3b-E2AK94/132/202R / pE2A-SCM, or expressed from HAdV E2A SCM mutant virus) (from UniProt P03265 1-529)
  reduction of E2A SUMOylation against HAdV wt infection: 70%
